Target: the molecule itself
Test: SEC

B1: EBOV VP40 with 6xHis tag (pET46-VP40-6xHis), recombinant dimer (natural protein)
chain: MRRVILPTAPPEYMEAIYPVRSNSTIARGGNSNTGFLTPESVNGDTPSNPLRPIADDTIDHASHTPGSVSSAFILEAMVNVISGPKVLMKQIPIWLPLGVADQKTYSFDSTTAAIMLASYTITHFGKATNPLVRVNRLGPGIPDHPLRLLRIGNQAFLQEFVLPPVQLPQYFTFDLTALKLITQPLPAATWTDDTPTGSNGALRPGISFHPKLRPILLPNKSGKKGNSADLTSPEKIQAIMTSLQDFKIVPIDPTKNIMGIEVPETLVHKLTGKKVTSKNGQPIIPVLLPKYIGLDPVAPGDLTMVITQDCDTCHSPASLPAVIEK
  stoichiometry N: 2
